# Experimental data published in patent US20110052582A1 (Hoffmann-La Roche, published 2011).
# T1: Soluble CDCP1 extracellular domain (CDCP1-ECD) (SEQ ID NO:30) fused to Streptavidin Binding Protein (SBP) (human, UniProt Q9H5V8 30-663)
# T1 construct: also called SBP-CDCP1-ECD
# T1 sequence: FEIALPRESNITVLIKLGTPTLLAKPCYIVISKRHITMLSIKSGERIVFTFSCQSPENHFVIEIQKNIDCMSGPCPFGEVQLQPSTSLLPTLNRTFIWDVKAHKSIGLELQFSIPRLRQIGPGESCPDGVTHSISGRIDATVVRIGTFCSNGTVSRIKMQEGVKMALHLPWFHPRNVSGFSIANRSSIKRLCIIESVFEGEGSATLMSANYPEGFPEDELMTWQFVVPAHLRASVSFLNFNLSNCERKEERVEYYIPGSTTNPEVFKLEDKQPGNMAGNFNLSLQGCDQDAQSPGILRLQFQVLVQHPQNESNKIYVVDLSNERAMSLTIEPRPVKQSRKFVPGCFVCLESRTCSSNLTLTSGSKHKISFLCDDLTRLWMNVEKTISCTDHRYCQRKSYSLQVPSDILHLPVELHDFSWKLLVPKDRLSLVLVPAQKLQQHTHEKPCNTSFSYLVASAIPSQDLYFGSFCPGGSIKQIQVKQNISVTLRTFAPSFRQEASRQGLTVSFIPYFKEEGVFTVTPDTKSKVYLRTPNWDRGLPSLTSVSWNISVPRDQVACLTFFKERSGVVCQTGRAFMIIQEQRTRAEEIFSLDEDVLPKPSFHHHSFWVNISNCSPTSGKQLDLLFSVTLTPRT
# Molecular target: T1, Soluble CDCP1 extracellular domain …
# Experiment: ELISA on captured SBP-CDCP1-ECD, ratio relative to chimeric CUB4 (chHC4)
# Protocol: Soluble CDCP1 extracellular domain (CDCP1-ECD) (SEQ ID NO:30) fused to Streptavidin Binding Protein (SBP) was captured on a sreptavidine plate. To define optimal binding of the antibody to SBP-CDCP1-ECD, 384-well polystyrene plates (NUNC, streptavidin-coated) delivered by MicroCoat, Bernried, Germany (ID-No. 1734776-001) have been coated with pure and stepwise diluted HEK293 supernatant (in BSA/IMDM buffer: 100 mg/ml BSA Fraction V, Roche 10735078001, dissolved in Iscove's Modified Dulbeccos Medium). Using a calibration curve of mouse CUB4 antibodies the optimal dilution factor of the HEK293 supernatant in relation to the streptavidin binding capacity of the microtiter plate was identified. For the standard coating, SBP-CDCP1-ECD containing HEK293 supernatant was diluted (between 1:15 and 1:40) and incubated overnight at 2-8° C. (25 μl per well). Intensive washing of the microtiter plate is necessary to remove remaining unbound SBP-CDCP1-ECD.
# Humanized CUB4 antibodies and/or reference antibody (chimeric (chHC4) CUB4 antibody comprising human constant region and mouse VH and VL of SEQ ID NO:1 and 2) were tested either undiluted or using a 12-step-dilution. 12.5 μl per well of each sample was incubated for 90 min at room temperature. After intensive washing using PBS-T (0.1% Tween 20 in PBS) 25 μl of either goat anti-human IgG antibodies coupled with HRP (Jackson ImmunoResearch, Code No: 109-036-098, dilution 1:10000) for human antibodies were added and incubated for 1 hour. After intensive washing the binding of the antibodies was detected with ABTS tablets (Roche Diagnostics GmbH, Cat. No.: 1112422). Absorbance at 405 nm/492 nm was measured using a standard photometer.
Binder,relative binding ratio,binding result
"hHC4-04 / hLC4-b (antibody, V domains shown) VH: EVQLLESGGGLVQPGGSLRLSCAASGFTFNSYGMSWVRQAPGKGLEWVSTISSGGSYTYYPDSVKGRFTISRDNSKNTLYLQMNSLRAEDTAVYYCARHPDYDGVWFAYWGQGTLVTVSS VL: EIVLTQSPATLSLSPGERATLSCSVSSSVFYVHWYQQKPGQAPRLLIYDTSKLASGIPARFSGSGSGTDYTLTISSLEPEDFAVYYCQQWNSNPPTFGGGTKVEIK",0.36,–
"hHC4-07 / hLC4-b (antibody, V domains shown) VH: EVQLLESGGGLVQPGGSLRLSCAASGFTFNSYAMSWVRQAPGKGLEWVSTISSGGSYTYYPDSVKGRFTISRDNSKNTLYLQMNSLRAEDTAVYYCAKHPDYDGVWFAYWGQGTLVTVSS VL: EIVLTQSPATLSLSPGERATLSCSVSSSVFYVHWYQQKPGQAPRLLIYDTSKLASGIPARFSGSGSGTDYTLTISSLEPEDFAVYYCQQWNSNPPTFGGGTKVEIK",0.07,–
"hHC4-K2 / hLC4-K (antibody, V domains shown) VH: EVQLVESGGGLVKPGGSLRLSCAASGFTFNSYGMSWVRQAPGKGLEWVSSISSGGSYTYYADSVKGRFTISRDNAKNSLYLQMNSLRAEDTAVYYCARHPDYDGVWFAYWGQGTLVTVSS VL: EIVLTQSPATLSLSPGERATLSCRASSSVFYLHWYQQKPGQAPRLWIYDTSKLASGIPARFSGSGSGTDFTLTISSLEPEDFAVYYCQQWNSNPPTFGGGTKVEIK",0.3,–
"hHC4-H / hLC4-L (antibody, V domains shown, also called Humanized CUB4 Antibody No. 58) VH: EVQLVESGGGLVQPGGSLRLSCAASGFTFNSYGMSWVRQAPGKGLEWVATISSGGSYKYYVDSVKGRFTISRDNAKNSLYLQMNSLRAEDTAVYYCARHPDYDGVWFAYWGQGTLVTVSS VL: EIVLTQSPATLSLSPGERATMSCRASSSVFYLHWYQQKPGQAPRLWIYDTSKLASGIPARFSGSGSGTDFTLTISSLEPEDFAVYYCQQWNSNPPTFGGGTKVEIK",0.44,–
"hHC4-I / hLC4-L (antibody, V domains shown) VH: EVQLLESGGGLVQPGGSLRLSCAASGFTFNSYAMSWVRQAPGKGLEWVSAISSGGSYTYYADSVKGRFTISRDNSKNTLYLQMNSLRAEDTAVYYCAKHPDYDGVWFAYWGQGTLVTVSS VL: EIVLTQSPATLSLSPGERATMSCRASSSVFYLHWYQQKPGQAPRLWIYDTSKLASGIPARFSGSGSGTDFTLTISSLEPEDFAVYYCQQWNSNPPTFGGGTKVEIK",0.11,–
"hHC4-07 / hLC4-J (antibody, V domains shown) VH: EVQLLESGGGLVQPGGSLRLSCAASGFTFNSYAMSWVRQAPGKGLEWVSTISSGGSYTYYPDSVKGRFTISRDNSKNTLYLQMNSLRAEDTAVYYCAKHPDYDGVWFAYWGQGTLVTVSS VL: EIVMTQSPATLSLSPGERATMSCRASSSVFYLHWYQQKPGQAPRLWIYDTSKLASGIPARFSGSGSGTDFTLTISSLQPEDFAVYYCQQWNSNPPTFGGGTKVEIK",0.07,–
"hHC4-I / hLC4-L2 (antibody, V domains shown) VH: EVQLLESGGGLVQPGGSLRLSCAASGFTFNSYAMSWVRQAPGKGLEWVSAISSGGSYTYYADSVKGRFTISRDNSKNTLYLQMNSLRAEDTAVYYCAKHPDYDGVWFAYWGQGTLVTVSS VL: EIVLTQSPATLSLSPGERATMSCSVSSSVFYLHWYQQKPGQAPRLWIYDTSKLASGIPARFSGSGSGTDFTLTISSLEPEDFAVYYCQQWNSNPPTFGGGTKVEIK",0.21,–
"hHC4-H / hLC4-J (antibody, V domains shown, also called Humanized CUB4 Antibody No. 36) VH: EVQLVESGGGLVQPGGSLRLSCAASGFTFNSYGMSWVRQAPGKGLEWVATISSGGSYKYYVDSVKGRFTISRDNAKNSLYLQMNSLRAEDTAVYYCARHPDYDGVWFAYWGQGTLVTVSS VL: EIVMTQSPATLSLSPGERATMSCRASSSVFYLHWYQQKPGQAPRLWIYDTSKLASGIPARFSGSGSGTDFTLTISSLQPEDFAVYYCQQWNSNPPTFGGGTKVEIK",0.52,–
"hHC4-07 / hLC4-K (antibody, V domains shown) VH: EVQLLESGGGLVQPGGSLRLSCAASGFTFNSYAMSWVRQAPGKGLEWVSTISSGGSYTYYPDSVKGRFTISRDNSKNTLYLQMNSLRAEDTAVYYCAKHPDYDGVWFAYWGQGTLVTVSS VL: EIVLTQSPATLSLSPGERATLSCRASSSVFYLHWYQQKPGQAPRLWIYDTSKLASGIPARFSGSGSGTDFTLTISSLEPEDFAVYYCQQWNSNPPTFGGGTKVEIK",0.1,–
"hHC4-I / hLC4-J (antibody, V domains shown) VH: EVQLLESGGGLVQPGGSLRLSCAASGFTFNSYAMSWVRQAPGKGLEWVSAISSGGSYTYYADSVKGRFTISRDNSKNTLYLQMNSLRAEDTAVYYCAKHPDYDGVWFAYWGQGTLVTVSS VL: EIVMTQSPATLSLSPGERATMSCRASSSVFYLHWYQQKPGQAPRLWIYDTSKLASGIPARFSGSGSGTDFTLTISSLQPEDFAVYYCQQWNSNPPTFGGGTKVEIK",0.11,–

# Further lines, results first:
relative binding ratio,binding result,Binder
0.2,–,"hHC4-K2 / hLC4-L2 (antibody, V domains shown) VH: EVQLVESGGGLVKPGGSLRLSCAASGFTFNSYGMSWVRQAPGKGLEWVSSISSGGSYTYYADSVKGRFTISRDNAKNSLYLQMNSLRAEDTAVYYCARHPDYDGVWFAYWGQGTLVTVSS VL: EIVLTQSPATLSLSPGERATMSCSVSSSVFYLHWYQQKPGQAPRLWIYDTSKLASGIPARFSGSGSGTDFTLTISSLEPEDFAVYYCQQWNSNPPTFGGGTKVEIK"
0.28,–,"hHC4-K2 / hLC4-M (antibody, V domains shown) VH: EVQLVESGGGLVKPGGSLRLSCAASGFTFNSYGMSWVRQAPGKGLEWVSSISSGGSYTYYADSVKGRFTISRDNAKNSLYLQMNSLRAEDTAVYYCARHPDYDGVWFAYWGQGTLVTVSS VL: EIVLTQSPATLSLSPGERATMSCGASSSVFYLHWYQQKPGLAPRLWIYDTSKLASGIPDRFSGSGSGTDFTLTISRLEPEDFAVYYCQQWNSNPPTFGGGTKVEIK"
–,no binding,"hHC4-07 / hLC4-I (antibody, V domains shown) VH: EVQLLESGGGLVQPGGSLRLSCAASGFTFNSYAMSWVRQAPGKGLEWVSTISSGGSYTYYPDSVKGRFTISRDNSKNTLYLQMNSLRAEDTAVYYCAKHPDYDGVWFAYWGQGTLVTVSS VL: EIVMTQSPATLSLSPGERATLSCRASSSVFYLSWYQQKPGQAPRLWIYDTSKLASGIPARFSGSGSGTDFTLTISSLQPEDFAVYYCQQWNSNPPTFGGGTKVEIK"
–,no binding,"hHC4-K2 / hLC4-I (antibody, V domains shown) VH: EVQLVESGGGLVKPGGSLRLSCAASGFTFNSYGMSWVRQAPGKGLEWVSSISSGGSYTYYADSVKGRFTISRDNAKNSLYLQMNSLRAEDTAVYYCARHPDYDGVWFAYWGQGTLVTVSS VL: EIVMTQSPATLSLSPGERATLSCRASSSVFYLSWYQQKPGQAPRLWIYDTSKLASGIPARFSGSGSGTDFTLTISSLQPEDFAVYYCQQWNSNPPTFGGGTKVEIK"
–,no binding,"hHC4-I / hLC4-I (antibody, V domains shown) VH: EVQLLESGGGLVQPGGSLRLSCAASGFTFNSYAMSWVRQAPGKGLEWVSAISSGGSYTYYADSVKGRFTISRDNSKNTLYLQMNSLRAEDTAVYYCAKHPDYDGVWFAYWGQGTLVTVSS VL: EIVMTQSPATLSLSPGERATLSCRASSSVFYLSWYQQKPGQAPRLWIYDTSKLASGIPARFSGSGSGTDFTLTISSLQPEDFAVYYCQQWNSNPPTFGGGTKVEIK"
–,no binding,"hHC4-H / hLC4-I (antibody, V domains shown) VH: EVQLVESGGGLVQPGGSLRLSCAASGFTFNSYGMSWVRQAPGKGLEWVATISSGGSYKYYVDSVKGRFTISRDNAKNSLYLQMNSLRAEDTAVYYCARHPDYDGVWFAYWGQGTLVTVSS VL: EIVMTQSPATLSLSPGERATLSCRASSSVFYLSWYQQKPGQAPRLWIYDTSKLASGIPARFSGSGSGTDFTLTISSLQPEDFAVYYCQQWNSNPPTFGGGTKVEIK"
0.21,–,"hHC4-K2 / hLC4-L (antibody, V domains shown) VH: EVQLVESGGGLVKPGGSLRLSCAASGFTFNSYGMSWVRQAPGKGLEWVSSISSGGSYTYYADSVKGRFTISRDNAKNSLYLQMNSLRAEDTAVYYCARHPDYDGVWFAYWGQGTLVTVSS VL: EIVLTQSPATLSLSPGERATMSCRASSSVFYLHWYQQKPGQAPRLWIYDTSKLASGIPARFSGSGSGTDFTLTISSLEPEDFAVYYCQQWNSNPPTFGGGTKVEIK"
